Molecular target: hnRNP A1 tandem RRMs (UP1-like) (UniProt P09651 1-196)
Assay: fluorescence anisotropy; 35 C; NMR buffer: sodium phosphate pH 6.5 (50 mM for tandem RRMs, 25 mM for single RRMs), 1 mM BME, 50 uM EDTA, no added salt stated; ITC 25 C, NMR 298 K (10% D2O), FA 35 C
Settings: protein: recombinant; tags: 2xHis6-lipoyl tag removed by TEV; label: 3' fluorescein

Chain of hnRNP A1 tandem RRMs (UP1-like) (P09651 1-196): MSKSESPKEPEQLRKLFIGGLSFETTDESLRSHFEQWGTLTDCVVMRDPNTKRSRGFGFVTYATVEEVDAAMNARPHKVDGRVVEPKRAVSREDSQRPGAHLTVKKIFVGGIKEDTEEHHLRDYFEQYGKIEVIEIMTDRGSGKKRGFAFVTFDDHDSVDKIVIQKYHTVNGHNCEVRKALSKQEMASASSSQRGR

Row | Binder | Kd
1 | CAGGGAUUUGGGGAC (ssRNA) [CFTR exon 9 ESS 15-mer ssRNA wt] | 0.099 µM
2 | CAGGGAUUUCGCGUA (ssRNA) [CFTR exon 9 ESS 15-mer ssRNA mut4] | 0.117 µM

Reference: publication PMC12171016, “hnRNP A1 induces aberrant CFTR exon 9 splicing via a newly discovered ESS element”
